Data: the nanobody polyreactivity screen of Harvey et al. (2022)

Test: yeast display, Sf9 membrane polyspecificity reagent, FACS + sequencing; frameworks hold sequencing errors
How it was run: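 Nanobodies from a synthetic yeast display library (Saccharomyces cerevisiae BJ5465), induced 36–48 hours with galactose, were stained 1 hour at 4 °C with 10% biotinylated, detergent-solubilized Sf9 membrane reagent, enriched on streptavidin microbeads, then FACS-sorted. Anti-HA (expression) and streptavidin (reagent binding) fluorescence set low and high (top ~1%) gates. Polyreactivity labels come from the gate of origin. Genes were colony-PCR amplified, MiSeq 2 × 250 sequenced and filtered by CDR length.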

Sequence | polyreactivity (PSR sort gate)
QVQLVESGGVLVQAGGSLRLSCAASGRIFIGYAMGGNRQAPGKERELVAAISSSGGRTYYADSVKGRFTISRDNAKYTVYLQMNSLKPEDSAVYYCAKSFTRNTDYEYWGQGTQVTVSS | high polyreactivity
QVQLVESGGVLVQAGGSLRLSCAASGRIFPYYAMGWYRQAPGKEREMVAAINSGGSTYYADSVKGRFTISRDNAKNTVYLQMNSLKPEDTAVYYCNADVLFEDGFFWDDYWGQGTQVTVSS | low polyreactivity
QVQLVESGGVLVQAGGSLRLSCAASGRIFTGNAMGWYRQAPGKETELVAAISRRGTRTYYADSVKGRFTISRDNAKNTVYLQMNSLKPEDTAVYYCATVLYKAYNDYGYWGQGTQVTVSS | high polyreactivity
QVQLVESGGVLVQAGGSLRLSCAASGRTFAYNTMGWYRQAPGKEREVVAAITWSGGGTYYADSVKGRFTISRDNAKKTVYLQLNSLKPEDTAVYYCAVEYATPRARFRYYYWGQGTKVTVSS | high polyreactivity
QVQLVESGGVLVQAGGSLRLSCAASGRTFSVYTMGWYRQAPGKERELVASINWSGGRTYYADSVKGRFTISRDKAKNTVYLQMNSLKPEDTAVYYCAATGWRTLYDYWGQGTQVTVSS | high polyreactivity
QVQLVESGGVLVQAGGSLRLSCAASGRTSFYYGVGWSRQAPGKERELVAGINYGGGSTYYADSVKGRFSISRDTAKNTVYLQMNSLKPEDTAVYYCAAYRRTLGDYWGQGTQVTVSS | low polyreactivity
QVQLVESGGVLVQAGGSLRLSCAASGSIFAGNAMGWYRQEPGKERELVAAISRSGTRTYYADSVKGRFTISRDNAMNTVYLQMNSLKPEDTAVYYFAAYLPYRQGRYGYEYWGQGTQVTVSS | high polyreactivity
QVQLVESGGVLVQAGGSLRLSCAASGSIFGIYTMGWYIHATGKERELVAAISWSGGSTYYADSVKGRFTISRDNAKNTVFLQMNSLKPEDTAVYYCAAVPWASDGYDSWGQGTQVTVSS | low polyreactivity
QVQLVESGGVLVQAGGSLRLSCAASGSIFNINAMGWYRQAPGKERELVAAMTSGDGTDYADSVKGRFTISRDNAKNTVYLQMNSLKPEDTAVYYCAAEYYWLVPERFDYWGQGTQVTVSS | low polyreactivity
QVQLVESGGVLVQAGGSLRLSCAASGSIYTWYAMGWYRQAPGKERELVAAITRGGSTYADSVKGRFTISRENAKNTVYLQMNSLKPEDTAVYYCNAVYGVYDFNYWGQGTQVTVSS | low polyreactivity
QVQLVESGGVLVQAGGSLRLSCAASGSTFYFNTMGWYRQAPGKERELVAAITATGASTYYADSVKGRFTISRDIAKNTVYLQMNSLKPEDTAVYYCNVRLRIRSGYWGQGTQVTVSS | high polyreactivity
QVQLVESGGVLVQAGGSLRLTCAASGFIFKIYAMGWYRQAPGKERELVARITRSGGSTYYADSVKGRFTNSRDNAKNTVYLQMNSLKPEDTAVYYCNAELFRYVRYEYWGQGTQVTVSS | high polyreactivity
QVQLVESGGVLVQAVGSLRLSCAASGRIFKNYAMGWYIQAPGKESELVAAISWSGGRTYYADSVKGRFTISRDNAKNTVYLQMNSLKPEDTAVYYCAVDFYYYGSRYYYWGQGTQVTVSS | high polyreactivity
QVQLVESGGVLVQAVGSLRLSCAASGSISSYYAMGWYIQAPGKERELVAAITSGGRTYYADSVKGRFTISRDNAKNTVYLQMNSLKPEATAVYYCAADPDTWSPHYESLGYYWGQGTQVTVSS | high polyreactivity
QVQLVESGGVLVQEGGSLSLSCTASRSIFLKYAMGWYRQAPGKERELVAAISSRDASTYYADSVKGRFSISRDNAKKSVYLQMNSLKPEDTAVYYCNVAQNYWAGLYDYWGQGTQVTVSS | high polyreactivity
QVQLVESGLGIVQAGGSLRVSCAASGSTISNYAMGWYRHAPGKERELVAAITSGGTTNYADSVKGRFTISRDNAKNTVYFQMNSLIPEDTAVYYCAKRYSYHVPTHLWVEYYYWGQGTQVTVSS | low polyreactivity
QVQLVESGLGLVQAGASLRVSCAASGSTFIFNTMGWSRQAPGKERELVAAIRLSGGSTYYADSVKGRFTITRDNAKNTVYLQMNSLNPEDTAVYYCARRLATRGHTYDYWGQGTQVTVSS | low polyreactivity
QVQLVESGLGLVQAGGSLRLSCAASGFTFTGYAMGWYRQAPGKERELVAAITRGGGSTYYADSVKGRFTISRDNAKNTVYLQMNSLKPEDTAVYYCAAQRSRLIRISSPYYGHEYWVQGTQVTVSS | low polyreactivity
QVQLVESGLGLVQAGGSLRLSCAASGRTFYYNAMGWYRQAPGKERELVAAISWSGGNTYYADSVKARFTISRDNAKNTVYLQMNSLKPEDTAVYYCAAVYRYYPGYDYWGHGTQVTVSS | high polyreactivity
QVQLVESGPGLFQAGGSLRLSCAASGNIFGYNVMAWYRQAPGKERELVAAITWSAGTTNYADSLKGRFTISRDNAKNTVYLQRNSLKPEDTAVYYFAVTWWYQDYDLTCYLYDYWGQGTEVTVSS | low polyreactivity
QVQLVESGPGLVQAGGSLRLSCAASGSTFAPYALGWYRQAPGIEMELVAAIRSSGGSTYYADSVKGGFTISRDNAKNTVYLQMNSLKPEDTAVYYCADDYYTSADYVDYYYWGQGTQVTVSS | low polyreactivity

Sequence | polyreactivity (PSR sort gate)
QVQLVESGRGFVQAGGSLRLSCADSGSTFRYYAMGWYRQAPGKERELVAAISWSGGSTYYADSVKGRFTISRDNAKNTVYLQMNSLKPEDTAVYYCAAEVYLVGSRWGPRYGDYWGQGTQVTVSS | high polyreactivity
QVQLVESGRGIVQAGGSLRLSCAASGSIFWLYAMGWYRQAPGKERELVAAISWSGTSTNYADSVKGRFTISRDNAKNTVYFQMNSLKPEDTAVYYCAKRWYNQKLFGYEEEYDYWGQGTQVTVSS | low polyreactivity
QVQLVESGRGIVQAGGSLRLSCAASGSTLNDYAMGSSRPAPGKERELVAAINGSGGSTYYADSVKGRFTISRDNAKNTVYLQMNSLKPEDTAVYYCAAATTHRRRYGYWGQGTQVTVSS | low polyreactivity
QVQLVESGRGLFQAGGRLRLSCAASGRIFSFYAMGWSRQAPGKERELVASITSGGITNYADSVKGRFTISRDNAKNTVYLQMNSLKPEDTAVYYCNAANPYRRVGSFTYKYDYWGQGTQVTVSS | low polyreactivity
QVQLVESGRGLVQAGGILRLSCDASGRTIYFNRMGWYRHAPGKEREFVAAINRSGGSTYYADSVKGRFTISRDNAKNTVYLQMNSLKPEDTAVYYCAADGVIFEYDYWGQGTQVTVSS | low polyreactivity
QVQLVESGRGLVQAGGRHRISCAASGSIIHDYAMGLYSQAPGKERELVAVISTSGGSTYYADSVKGRFTMSRDNAKNTVYLQMISLKPEETEVYYCNARTVGPYPSHAALEYDSWGPGTQVTVSS | low polyreactivity
QVQLVESGRGLVQAGGRLRLSCAASGSTFDGYAMGLYRQAPGKERELVAAITVSVGSTYYADSVKGRFTISRDNAKNTVYLQMNSLKPEDTAVYYCAADYDYQYRYYYWGQGTKVTVSS | low polyreactivity
QVQLVESGRGLVQAGGSLRISCAASGFTFRKYTMGWNRQAPGKERELVAAISRRGGSTYYADSVKSRFTISRDNAKNTVYLQMNSLKPEVTAVYYCATDHIPSVGVDYWGQGTQVTVSS | high polyreactivity
QVQLVESGRGLVQAGGSLRLRCAASGFTIYPYVMGWYRQAPGKERELVAAISWSGGRTSYADSVKGRFTISRDNAKNTVYLQMNSLKPEDTAVYYCATRPSHVLSEMDYWGQGTQVTVSS | low polyreactivity
QVQLVESGRGLVQAGGSLRLSCAASGFIFAKYDMGCYSKAPVKERELVAAITRSGARTYYADSVKGRFTISRDNAKTTVYLQMNSLKPEDTAVYYCAIVTTVYTYDYWGQGTQVTVSS | high polyreactivity
QVQLVESGRGLVQAGGSLRLSCAASGFTFYRYAMGWYRQAPGKERELVATISASGGSTYYADSVKGRFTISRDNAKNTVYLQMNSLKPVDTAVFYCARYIYRSAFDYWGQGTQVTVSS | high polyreactivity
QVQLVESGRGLVQAGGSLRLSCAASGFTLICNARGCYRQAPGKERELVAAITWSGGSTYYADSVKGRFTISRDKAKNTVYLQMNSLKPEDTAVYYCAADYSIQSNDDWGQGTQVTVSS | low polyreactivity
QVQLVESGRGLVQAGGSLRLSCAASGGTFGNNDMGWYRQAPGKERELVAAIRSAGTTYYADSVKGRFTISRDNAKNTVYLQMNSLKPEDTAVYYCNAYTTGYWSYGFQYYGEDYWGQGTQVTVSS | low polyreactivity
QVQLVESGRGLVQAGGSLRLSCAASGITFYTYAMGWYRQEPGKARELVATISSGGSTDYADSVKGRFTISRDNAKITVYLQMNSLKPEDTAVYYCADQYSYRIYYLYDYWGQGTQVTVSS | low polyreactivity
QVQLVESGRGLVQAGGSLRLSCAASGLIFGRNAMGWYIQAPGKERECVAANTSGGSTYYADSVKGRFTISRDNAKNSVYLQMNSLKPEDTAVYYCAADVVDLYLLDYWGQGTQVTVSS | low polyreactivity
QVQLVESGRGLVQAGGSLRLSCAASGLTFGHYAMGGYRQAPGKERELVAAITSGGRTYYADSVKGRFTISRDNAKNTVYLQMNSLKPEDTAVYYCATRGPRYRYYYWGQGTQVTVSS | high polyreactivity
QVQLVESGRGLVQAGGSLRLSCAASGRIFNLNAMGWYRQAPGKERELVAAITRGGRTIYADSVKGRFTISRDNAQNTVYLQMNSLKPEDTAVYYCAAAYYGSHGRYDYWGQGTQVTVSS | high polyreactivity
QVQLVESGRGLVQAGGSLRLSCAASGRIFSIYAMGWYRQAPGKERELVAAITRGGRTNYADSVKGRFTISRDNAKNTVYLQMNSLKPEDTAVYYCAARRIDGVVKPYDYWGQGTQVTVSS | low polyreactivity
QVQLVESGRGLVQAGGSLRLSCAASGRIFVHYAMGWYRQAPGKERELVAAITYSGDSTYYADSVKGRFTISRDNAKNTVYLQMNSLKPEDTAVYYCNAVVRRVLFDYDYWGQGTQVTVSS | high polyreactivity
QVQLVESGRGLVQAGGSLRLSCAASGRSFAVYAMAWYRPAPGKVMELVAAISSGGSTYYADSVKGRFTSSRDNAKNTVYVQMNSLKPEDSSVSYCAAGWKRLSGRKHYYWGQGTQVTVSS | high polyreactivity
